This is an account of results in patent US20150274820A1 (ESBATECH AN ALCON BIOMEDICAL RESEARCH UNIT, published 2015).

For assay [1], the target named is T1, recombinant human VEGF165 (human, UniProt P15692 27-191). As to the kind of experiment: cell-based or functional assay.
In assay [2] the target is T2, recombinant human VEGF121 (human, UniProt P15692 27-147).
T2 construct: mature; Isoform VEGF121 of the entry; also called hVEGF121
T2 sequence (looked up): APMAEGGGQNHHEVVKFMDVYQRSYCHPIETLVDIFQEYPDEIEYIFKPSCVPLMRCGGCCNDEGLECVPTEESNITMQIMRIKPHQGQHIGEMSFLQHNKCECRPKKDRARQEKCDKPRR
As to the kind of experiment: Biacore SPR (FIG. 3b legend; differs from Table 9). The method, then:
In this example, the Biacore-binding ability of scFvs was tested and the binding affinity was measured using the exemplary surface plasmon resonance method with BIAcore™-T100. The VEGF proteins, tested for binding by these scFv candidates, in this example and later examples include purified Escherichia coli-expressed recombinant human VEGF₁₆₅ (PeproTech EC Ltd.), recombinant human VEGF₁₂₁ (PeproTech EC Ltd.), recombinant human VEGF₁₁₀ (ESBATech AG), recombinant murine VEGF₁₆₄ (PeproTech EC Ltd.), recombinant rat VEGF₁₆₄ (Biovision), recombinant rabbit VEGF₁₁₀ (ESBATech AG), and recombinant human PLGF (PeproTech EC Ltd.). For the surface plasmon resonance experiment, carboxymethylated dextran biosensor chips (CM4, GE Healthcare) were activated with N-ethyl-N′-(3-dimethylaminopropyl) carbodiimide hydrochloride and N-hydroxysuccinimide according to the supplier's instructions. Each of the 6 different VEGF forms, as exemplified above, was coupled to 1 of the 4 different flow cells on a CM4 sensor chip using a standard amine-coupling procedure. […] The apparent dissociation rate constant (kd), the apparent association rate constant (kₐ) and the apparent dissociation equilibrium constant (KD) were calculated using one-to-one Langmuir binding model with BIAcore T100 evaluation Software version 1.1.

In assay [3] the target is T1, recombinant human VEGF165. Kind of assay: cell-based or functional assay. This is another data set of the same source.
Assay [4] has as its target recombinant rat VEGF164 (rat) (UniProt P16612). Kind of assay: Biacore SPR, VEGF immobilized, pH 5. A general note: In SPR one partner is held on a chip, and binding of the other changes the refractive index at the surface.
Assay [5] deals with recombinant murine VEGF164 (mouse) (UniProt Q00731). Kind of assay: Biacore SPR, VEGF immobilized, pH 5.
For assay [6], the target named is T1, recombinant human VEGF165. As to the kind of experiment: cell-based or functional assay. The source holds these as a separate data set.
Target sequence in this assay (P15692 other isoform, or with tags, fused parts or gaps): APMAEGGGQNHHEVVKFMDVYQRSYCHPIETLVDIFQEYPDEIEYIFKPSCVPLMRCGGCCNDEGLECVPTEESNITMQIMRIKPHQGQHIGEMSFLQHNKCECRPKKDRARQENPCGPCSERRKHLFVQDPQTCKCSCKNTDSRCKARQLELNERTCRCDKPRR
Assay [7] deals with T1, recombinant human VEGF165. As to the kind of experiment: VEGFR2 competition ELISA: hVEGF165 coated on the plate, scFv pre-incubated with human VEGFR2/Fc chimera, bound VEGFR2/Fc detected with anti-human Fc-HRP, OD 450 nm; half-maximal inhibition. How it is done:
After 30-60 min of incubation at room temperature, the mixtures were transferred to the human VEGF₁₆₅ immobilized plate and incubated for 90 min. […] Optical density at 450 nm (OD 450 nm) was measured using a Sunrise microplate reader (Tecan).
In general terms: ELISA stands for enzyme-linked immunosorbent assay.

Assay [8] has as its target T1, recombinant human VEGF165. Kind of assay: Biacore SPR, VEGF immobilized, pH 5.
Target sequence in this assay (P15692 other isoform, or with tags, fused parts or gaps): as above
The target of assay [9] is T3, recombinant human VEGF110 (human, UniProt P15692-4 27-136, limits assumed).
T3 construct: Made in house; also called hVEGF110
T3 sequence (looked up): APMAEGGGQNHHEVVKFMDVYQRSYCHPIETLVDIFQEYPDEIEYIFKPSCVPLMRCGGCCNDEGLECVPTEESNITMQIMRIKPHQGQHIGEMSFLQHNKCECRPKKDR
Kind of assay: Biacore SPR, VEGF immobilized, pH 5.

Assay [10] addresses T2, recombinant human VEGF121. Kind of assay: Biacore SPR, VEGF immobilized, pH 5.
Assay [11] addresses T1, recombinant human VEGF165. Kind of assay: Biacore SPR, VEGF immobilized, pH 5. The source holds these as a separate data set.
Target sequence in this assay (P15692 other isoform, or with tags, fused parts or gaps): as the sequence (P15692 other isoform, or with tags, fused parts or gaps) above
The target of a further assay is T4, recombinant human PLGF (human, UniProt P49763-2 19-149, limits assumed).
T4 construct: Negative control; also called PIGF
T4 sequence (looked up): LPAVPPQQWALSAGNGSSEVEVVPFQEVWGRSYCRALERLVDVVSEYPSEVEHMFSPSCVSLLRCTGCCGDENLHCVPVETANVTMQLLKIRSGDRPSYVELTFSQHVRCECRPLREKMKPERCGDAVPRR
Kind of assay: Biacore SPR, PlGF immobilized, pH 5.

The target of assay [12] is T1, recombinant human VEGF165. As to the kind of experiment: Biacore SPR, VEGF immobilized, pH 7.4.
Target sequence in this assay (P15692 other isoform, or with tags, fused parts or gaps): as the sequence (P15692 other isoform, or with tags, fused parts or gaps) above
The target of assay [13] is T1, recombinant human VEGF165. As to the kind of experiment: Biacore SPR, VEGF immobilized, pH 5. The source holds these as a separate data set.
Target sequence in this assay (P15692 other isoform, or with tags, fused parts or gaps): as the sequence (P15692 other isoform, or with tags, fused parts or gaps) above
The target of assay [14] is T1, recombinant human VEGF165. Kind of assay: Biacore SPR (FIG. 4c legend; differs from Table 10). How it is done: For the surface plasmon resonance experiment, carboxymethylated dextran biosensor chips (CM4, GE Healthcare) were activated with N-ethyl-N′-(3-dimethylaminopropyl) carbodiimide hydrochloride and N-hydroxysuccinimide according to the supplier's instructions. Each of the 6 different VEGF forms, as exemplified above, was coupled to 1 of the 4 different flow cells on a CM4 sensor chip using a standard amine-coupling procedure. […] The 4th flow cell of each chip was treated similarly except no proteins were immobilized prior to blocking, and the flow cell was used as in-line reference. […] Dissociation of the anti-VEGF scFv from the VEGF on the CM4 chip was allowed to proceed for 10 min at 25° C. Sensorgrams were generated for each anti-VEGF scFv sample after in-line reference cell correction followed by buffer sample subtraction. The apparent dissociation rate constant (kd), the apparent association rate constant (kₐ) and the apparent dissociation equilibrium constant (KD) were calculated using one-to-one Langmuir binding model with BIAcore T100 evaluation Software version 1.1.
The present invention also discloses derivatives originating from the lead anti-VEGF scFv candidates, which are mentioned above.

Where “and” joins values, the source holds several entries; their conditions need not be identical. Equal values may be shown once.

B1: 578-max (scFv)
scFv: EIVMTQSPSTLSASVGDRVIITCQASEIIHSWLAWYQQKPGKAPKLLIYLASTLASGVPSRFSGSGSGTQFTLTISSLQPDDFATYYCQNVYLASTNGANFGQGTKLTVLGGGGGSGGGGSGGGGSGGGGSEVQLVESGGGLVQPGGSLRLSCTASGFSLTDYYYMTWVRQAPGKGLEWVGFIDPDDDPYYATWAKGRFTISRDTSKNTVYLQMNSLRAEDTAVYYCAGGDHNSGWGLDIWGQGTLVTVSS
notes: also called EP578max; #821
For the molecule B1, the “EC50 in HUVEC assay (FIG. 8d)” value in assay [1] was found to be 0.103 nM. The Kd in assay [2] is 0.095 nM. For the same molecule, in [3], the “Rel. activity in HUVEC assay (EC50Luc[nM]/EC50test[nM]) hVEGF” value is 0.94 and 1 and 1.2. Besides, the off-rate (koff) came out at 0.000528 s⁻¹ in assay [4]; 0.00044 s⁻¹ in assay [5]; 0.000307 s⁻¹ in assay [8]; 0.000722 s⁻¹ in assay [9]; 0.000558 s⁻¹ in [10]; 0.000307 s⁻¹ in assay [11]. The results for the koff in [12] and in assay [13] were 3.76e-05 s⁻¹ and 0.000307 s⁻¹, respectively. In addition, the kon in assay [4] came to 883000 M⁻¹ s⁻¹; in assay [5] it was 1.03e+06 M⁻¹ s⁻¹; in [8], 700000 M⁻¹ s⁻¹; in assay [9], 523000 M⁻¹ s⁻¹; in assay [10], 587000 M⁻¹ s⁻¹; in assay [11], 700000 M⁻¹ s⁻¹. Further, the kon in [12] came out at 1.58e+06 M⁻¹ s⁻¹; in assay [13] it was 700000 M⁻¹ s⁻¹. For the same molecule, the “Rel. activity in HUVEC assay (EC50Luc[nM]/EC50test[nM])” value in assay [6] amounted to 1.48. The “EC50 (read off the curve)” value in assay [7] is around 0.4 nM. The binding result in the assay with recombinant human PLGF is “no binding”.

B2: 578 wildtype C-His (scFv, not shown: small tags and cut ends)
scFv: DVVMTQTPSSVSAAVGDTVTINCQASEIIHSWLAWYQQKPGQPPKLLIYLASTLASGVPSRFKGSGSGTQFTLTISDLECADAAIYYCQNVYLASTNGANFGGGTEVVVKGGGGSGGGGSGGGGSGGGGSQSVEESGGRLVTPGTPLTLTCTASGFSLTDYYYMTWVRLAPGKGLEYIGFIDPDDDPYYATWAKGRFTISRTSTTVNLKMTSPTTEDTATYFCAGGDHNSGWGLDIWGPGTLVTVSL
notes: Rabbit wild type single chain
With B2, the kon in [14] came to 845000 M⁻¹ s⁻¹. Also, in [13], the Kd came out at 0.2 nM, the off-rate (koff) worked out at 0.000169 s⁻¹ and the kon came to 834000 M⁻¹ s⁻¹.

In general, Kd refers to the concentration at which binding is half-saturated. What is called koff is a measure of how fast the partners let go of each other. The kon is the rate constant with which the complex forms. As usually defined, the EC50 (read off the curve) is the concentration giving half of the maximal effect.
